Source: PMC5499601 (Nucleic Acids Research, 2017)

Experiments:
Assay in all cases: EMSA
[1] = biological target: T1, BsSpo0J Q140A (UniProt P26497 1-282, Q140A)
T1 sequence: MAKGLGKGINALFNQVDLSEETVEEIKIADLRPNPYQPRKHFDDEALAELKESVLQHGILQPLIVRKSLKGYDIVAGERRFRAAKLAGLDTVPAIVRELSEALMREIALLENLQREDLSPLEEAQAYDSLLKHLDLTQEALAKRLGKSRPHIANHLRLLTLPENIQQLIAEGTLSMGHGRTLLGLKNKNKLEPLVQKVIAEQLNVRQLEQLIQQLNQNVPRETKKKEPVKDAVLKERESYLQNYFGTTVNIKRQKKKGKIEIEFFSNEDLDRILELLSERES

[2] = biological target: T2, BsSpo0J Q140R (UniProt P26497 1-282, Q140R)
T2 sequence: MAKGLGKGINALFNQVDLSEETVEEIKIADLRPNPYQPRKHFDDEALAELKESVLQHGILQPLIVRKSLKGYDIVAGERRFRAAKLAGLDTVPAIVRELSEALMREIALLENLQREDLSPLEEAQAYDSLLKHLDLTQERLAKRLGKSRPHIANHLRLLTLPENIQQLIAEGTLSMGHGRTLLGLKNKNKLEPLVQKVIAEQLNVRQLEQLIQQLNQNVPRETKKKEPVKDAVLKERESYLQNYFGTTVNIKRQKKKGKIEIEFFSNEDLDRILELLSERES

[3] = biological target: T3, BsSpo0J N112S (UniProt P26497 1-282, N112S)
T3 sequence: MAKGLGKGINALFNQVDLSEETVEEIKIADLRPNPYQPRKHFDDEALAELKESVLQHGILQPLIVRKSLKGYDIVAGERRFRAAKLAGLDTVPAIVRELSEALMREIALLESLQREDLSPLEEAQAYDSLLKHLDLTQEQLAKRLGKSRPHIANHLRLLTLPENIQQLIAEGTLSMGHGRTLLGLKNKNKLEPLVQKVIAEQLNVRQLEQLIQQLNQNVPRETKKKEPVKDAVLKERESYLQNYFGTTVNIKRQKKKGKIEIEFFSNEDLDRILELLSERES

[4] = biological target: T4, BsSpo0J Q61R (UniProt P26497 1-282, Q61R)
T4 sequence: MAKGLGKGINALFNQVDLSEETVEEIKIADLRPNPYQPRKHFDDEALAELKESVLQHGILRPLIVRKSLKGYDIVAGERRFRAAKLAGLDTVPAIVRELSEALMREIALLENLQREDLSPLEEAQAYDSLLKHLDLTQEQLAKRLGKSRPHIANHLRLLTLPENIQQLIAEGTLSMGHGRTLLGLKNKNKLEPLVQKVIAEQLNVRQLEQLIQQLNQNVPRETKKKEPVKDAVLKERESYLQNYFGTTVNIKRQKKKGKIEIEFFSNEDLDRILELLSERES

[5] = biological target: T5, BsSpo0J L60E (UniProt P26497 1-282, L60E)
T5 sequence: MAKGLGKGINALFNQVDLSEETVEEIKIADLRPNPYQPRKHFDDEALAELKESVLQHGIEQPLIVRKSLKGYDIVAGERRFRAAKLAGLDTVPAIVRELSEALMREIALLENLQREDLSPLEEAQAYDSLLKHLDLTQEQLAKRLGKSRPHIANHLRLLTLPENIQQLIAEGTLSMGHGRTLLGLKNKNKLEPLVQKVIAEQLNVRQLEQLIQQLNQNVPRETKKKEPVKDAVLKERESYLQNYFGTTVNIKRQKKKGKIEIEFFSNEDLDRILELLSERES

[6] = biological target: T6, BsSpo0J R82A (UniProt P26497 1-282, R82A)
T6 sequence: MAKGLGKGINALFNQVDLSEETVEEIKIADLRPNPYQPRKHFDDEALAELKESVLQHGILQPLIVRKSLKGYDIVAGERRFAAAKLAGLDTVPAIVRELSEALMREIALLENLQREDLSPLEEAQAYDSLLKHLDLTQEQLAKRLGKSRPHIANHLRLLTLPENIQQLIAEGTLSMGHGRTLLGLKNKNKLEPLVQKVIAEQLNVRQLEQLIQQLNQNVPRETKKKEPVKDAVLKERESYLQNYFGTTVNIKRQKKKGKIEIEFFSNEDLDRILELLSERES

[7] = biological target: T7, BsSpo0J F81A (UniProt P26497 1-282, F81A)
T7 sequence: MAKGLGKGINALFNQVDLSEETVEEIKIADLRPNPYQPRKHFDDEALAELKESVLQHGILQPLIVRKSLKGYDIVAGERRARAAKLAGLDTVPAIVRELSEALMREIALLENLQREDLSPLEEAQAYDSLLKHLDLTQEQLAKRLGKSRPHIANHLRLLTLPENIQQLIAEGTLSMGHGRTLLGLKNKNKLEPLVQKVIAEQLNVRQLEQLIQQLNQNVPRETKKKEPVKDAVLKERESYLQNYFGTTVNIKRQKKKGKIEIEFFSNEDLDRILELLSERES

[8] = biological target: T8, BsSpo0J R105E (UniProt P26497 1-282, R105E)
T8 sequence: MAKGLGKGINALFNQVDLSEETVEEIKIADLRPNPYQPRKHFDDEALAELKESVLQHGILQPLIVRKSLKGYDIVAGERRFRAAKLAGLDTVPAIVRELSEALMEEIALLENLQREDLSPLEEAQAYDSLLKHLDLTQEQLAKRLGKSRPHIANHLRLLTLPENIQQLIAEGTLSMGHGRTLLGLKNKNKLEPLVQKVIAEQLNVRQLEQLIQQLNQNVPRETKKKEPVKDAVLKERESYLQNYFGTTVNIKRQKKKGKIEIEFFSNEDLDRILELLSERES

[9] = biological target: T9, BsSpo0J WT (UniProt P26497 1-282)
T9 sequence: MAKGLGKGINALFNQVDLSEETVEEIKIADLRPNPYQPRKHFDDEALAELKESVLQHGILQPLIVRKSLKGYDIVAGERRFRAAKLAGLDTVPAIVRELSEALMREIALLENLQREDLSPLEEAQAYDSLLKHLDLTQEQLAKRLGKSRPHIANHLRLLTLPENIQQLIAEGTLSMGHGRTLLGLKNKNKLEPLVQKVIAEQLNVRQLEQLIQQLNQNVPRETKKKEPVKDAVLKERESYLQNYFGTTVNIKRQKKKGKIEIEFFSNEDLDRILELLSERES

Measured: binding result

B1: 39-bp parS (dsDNA)
DNA 1: CAGTTGAATCAGAATGTTCCACGTGAAACAAAGAAAAAA
DNA 2: TTTTTTCTTTGTTTCACGTGGAACATTCTGATTCAACTG
binds: [1] | [2] | [3] | [4] | [5] | [6] | [7] | [8] | [9]
